Data set [1] concerns the target T1, GST-GT-4 (Arabidopsis thaliana, UniProt Q9LU92 1-372).
T1 sequence: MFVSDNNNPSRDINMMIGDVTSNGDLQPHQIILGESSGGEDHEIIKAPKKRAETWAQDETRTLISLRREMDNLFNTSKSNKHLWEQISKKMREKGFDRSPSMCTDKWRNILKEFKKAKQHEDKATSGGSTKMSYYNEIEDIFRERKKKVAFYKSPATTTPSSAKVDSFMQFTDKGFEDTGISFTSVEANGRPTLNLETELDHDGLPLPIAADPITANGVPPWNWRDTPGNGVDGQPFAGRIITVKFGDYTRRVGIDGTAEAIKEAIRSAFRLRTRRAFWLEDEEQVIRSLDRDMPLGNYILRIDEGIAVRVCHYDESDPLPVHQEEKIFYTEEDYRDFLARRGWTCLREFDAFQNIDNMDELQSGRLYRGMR
Nature of the data set: EMSA; unlabeled competitor reduces band; Probes annealed in 50 mM NaCl (70 C 5 min, then room temperature); EMSA binding buffer, pH and temperature not given (as in ref. 57). The following applies: protein: recombinant; tags: N-terminal GST (pGEX6p-1); label: digoxigenin; annealed complementary oligos. On the technique in general: A gel shift assay detects complexes by their altered migration in electrophoresis.

Data set [2] concerns the target T1, GST-GT-4. Nature of the data set: EMSA; Probes annealed in 50 mM NaCl (70 C 5 min, then room temperature); EMSA binding buffer, pH and temperature not given (as in ref. 57). The following applies: protein: recombinant; tags: N-terminal GST (pGEX6p-1); label: digoxigenin.

B1: P1 (GT-3 box) (dsDNA)
DNA 1: CGGGGTAAATAGGTAAATAGGTAAATA
DNA 2: TATTTACCTATTTACCTATTTACCCCG
Consider B1, for which, in data set [1], the binding result was “binds”.

B2: P7 (MRE4) (dsDNA)
DNA 1: TATCTCACCGTTACCTCTCACCGTTACCTCTCACCTACCATT
DNA 2: AATGGTAGGTGAGAGGTAACGGTGAGAGGTAACGGTGAGATA
On to B2, for which the binding result in data set [1] was “binds”.

B3: P2 (GT-3b box) (dsDNA)
DNA 1: CGGAAAAATCGAAAAATCGAAAAATT
DNA 2: AATTTTTCGATTTTTCGATTTTTCCG
For B3, in data set [1], the binding result was “binds”.

B4: Cor15A promoter 60 bp fragment with GT-3b box (dsDNA)
DNA 1: TTTCTTTAAGGAAATACATCAGAGAGAAAAATTATTACGAAACGATTCTATTACAAGTAA
DNA 2: TTACTTGTAATAGAATCGTTTCGTAATAATTTTTCTCTCTGATGTATTTCCTTAAAGAAA
As for B4, the binding result in data set [2] is recorded as “binds”.
